Measured values taken from the DeepSol protein solubility set.

Assay: soluble on expression in E. coli; label from the status in PepcDB or PDB records

Sequence | soluble on expression in E. coli
MAHHHHHHMSIYIQLTHDLSGTVTAVTIGDWILGILKEKNIQEYEVFFKKFLHIYQKQDKDSECNNRSEIFSLLLSASDFVFETLVETKKNNKIKVIIDNKESVKSYNEFYKEVEEYFVILISILQLEFKSVEELNNATNNFIKAIKNYNEFPELRLKILQLLYNSFNVNFSFRFPTFIAILQFCSQNNIFHNMLPYIKYIDDWIKEWNISTREKRHIYLIISQELKKLKKYEESYEHLKKHIYYYDNEHKDILNHPNSINASIELIVDAININNNIYFHEIINLHAIQNLQFIPQHQPLFDLLLIFYKYTINEFLVFKNKHGSDFFNKYNIDIQTCESKIYLLSIISLFNDHKVQNIQFISKQLNISVVQIENILVAAIGSGVIDAKIDQINQTVHMKTTILRNFDDENWKQLNNQITKYINNVQKILELTKHANK | not soluble
MAHHHHHHMSLVASQEGLTDLVPCNDQCGGDYTLYTFGQSEKEVTITAPLAPGTRGKSLRVDIKVRHLQIEVPGKGTILAGELYKPINVDDSTWCIQDGKELVVVLTKTNIEYEEWWPHVVIGERQIDLKTLKPPSIRFSDLDGGAQATVAKMMHEQHEKRTDPAFTNA | soluble
MAHHHHHHMSQEEILQQTTGPSVPGKGVIVDDGTMEDIIDKLRILRYEKDFCPRVKPPFKPLSKYYFSGPSSIDNPNAQFHYFTSLCSWLMGLAGHNFEPPGQFDDPNATSTNILGELRAMNISAPNLAPNRIRQGNGEAVLTILSVLSDHALLKKGFTVRSVDYTNVEKYDELDGVTDADDDNGIGEEVEDNVMIESDDEEELYVRATGERLVKEDAGVPLESEINAEEWNLEVERVGPLLQVRSDALQDWRSRIESAGVLLRAVEKMYPEVKADASTCGG | not soluble
MAHHHHHHMSQLAHNVNLSIFEPISHHRANRIVCTIGPSTQSVEALKGLIRSGMSVARMNFSHGSHEYHQTTINNLRAAATELGAHIGLALDTKGPEIRTGLFKDGGIALAPGDTVLVTSDPAFEKIGTKEKFYIEYPRLSITVRPGGFIYIDDGVLSLKVLSKEDEYTLKCYVNNAHFLTDRKGCNLPGCEVDLPAVSEKDREDLKFGVEQGIDMVFASFIRTAEQVQEVREALGEKGKDILIISKIENHQGVQNIDGIIEASDGIMVARGDLGVEIPAEKVVVAQMILISKCNVAGKPVICATQMLESMTTNPRPTRAEVSDVANAVFNGADCVMLSGETAKGKYPNEVVQYMARICLEAQSATNQAVMFNSIKKMQKLPMSPEEAVCSSAVNSVYEVRAKALLVLSNSGRSARLASKYRPDCPIICATTRMRTCRQLTITRSVDAVFYDAERYGEDENKEKRVQLGVDCAKKKGYVVPGDLMVVVHADHKVKGYPNQTRIIYVS | not soluble
MAHHHHHHMSRFPEARKQSVQVTRHCGIASQLVTEVNGRNLTHLSVLEQEMLASSNVTEHSRQMMDVVQDPKTDIDDALRMVMLYALRYEKVGGNNTAQLKEMLLKRNCPMERISLIDRLLEYGGADKRLHELFRTSTGHILKIVAKTVGQFGKDIQNVLTQHVPLMKKVINRVYNGTLSEQKYPVQEVVGSPISVSAVPTIRAKDIIIVMVGGVTYSEAMLLYQINQGQVSNNVESLMNLGKNVTRLVSGDSTAKSASGEPYTEKIEARVTLLSTSMIDSKDFIHSLPS | not soluble
MAHHHHHHMSRMPSTAARSQPYAFGPEGVMLDGGASEGRQNSVEALLAYCAARVAENPSWRTASWQQAGASNASAFRVPVSPRYLANASYAATGSPLCLRAGRIYLTDARIRAGIAEFQAAGLTVLPLTDDVLSRPSSRASKATVRVVPAMAVLLNGAWIATHFFHLVTDALEALRSAYQTWQDGVLLRIPTQTVLLHQPESNWMDRRGDTHGKMELSAALANAFSSPELARGSPYNSSFLFRSQSRHCAELEANATATMASPPPPRRQSPATVSTLCFCDGLLVTTHRLPVLERDILYGIQDWAARQFRASPYGVNRSVQEMERLRLQHALLSSTSTLWSIGTLTAPALSLSYKPRALFVHRTSRVIANASRYAGWMRAAGFRVEEVYLEKHTAAQQYHLGRYADIVVGMHGLGIGHAMWMERSPPRCRTVIEFRPWVIASMPTQPILILEGAMHYHFVTIPPIDVRFGPSVAHPAEERELLLSSARMVNAFRYPSFTDQIAIYDDERVKGVIADVRQHLERCLPP | not soluble
MAHHHHHHMSSKGAAMTPNGNGATHESRPGKKGRPPRRRADREAAGAHFDCGSSQTTEKGGDEYQYKHPKPRVLTSSLFMWEHVAVFSMPAQVAELERVSRDVARLLEDSNTGTHPMQRYWNAQWSRMVWREEELPDEKKYLAPTMLTRSDGKRKWKNVFVQEYPLYLKRVYQGKGVCNNAVNAAKVLFNRQVLNAAKTAAELERMELTVEEARVKEQKKRGVDVEFEETPDTAPSPPWLGCHHGSYPEKGERERHEKGRPRAVKKASHETYTRSDYKEDYRTGDRKGKHKKGGTGRWSKFDDFGDYDY | not soluble
MAHHHHHHMSSPAWSVYEGDWGSFCDDADNVPPTLSLKGCGLRQKCLLQRGAQGAVYLGEDADGNVFVVKRLFTQRSEFGVRGVSEGSLREATLLTYITERSKTLGPEPLFGVIRLERIVEAPFQELSLILERCAFNLSRMVFYSRKRAYSAAGLFPETPTRCPILAKMNVIQYLMRGILKILQFLHEECHIIHRDVKLGNLLVGEDGRVRLADFGSARFMHEPVEKMSDARSGEYTPISLRTTVIYQAPECLLGERSYTAAVDMWAAGVVFAELLLQQHLFHSCSELGMLSDIWKLLGTPSDDPSVCSGEGAVTYAVRTESTIERKFPERIVSAEGLDLLKRMLETNPKKRITDSEALRHPFLCGPAVESGMEEARRLWNKKVEACMQETVAQPAAMGMRSFYVDNVEFDEESGENDDDDGEIATLPTCLDCFPHILSDVNGRHDI | not soluble
MAHHHHHHMSVEEVQNAAAMADEEIPTLEAAEVPQNAKQSKRYAKAMAKMGLKPEPNITKVTIRKVGSLSFAMVQPEVYRFPGTNTFVIFGEAQLEDTSALAQEAAARAAVSGAASASSDAAASVPAAEEDDDEEVDAGDLDEKEINVVMSQANVSRSKAIKALKNNNGDIVNTIMELTM | soluble
MAHHHHHHMSVFAAARQRAAHYANRNPLFAKLNKTHLEYFNCVLREQCPKNKKPGRMLTDPNKIVSFNRDWMNQVEGECPVVLLPTSTQQVAAILRYCQSEKIGIVPQCGNTGLVYGSSALHDEVILSLREMNGDPVVSPQTMSTEAEAGVILQQLQEAAKTHDLLVPITMGSKGSAQIGGAVSTNAGGIHFARYGSMHANVLGLEVVTAQGEVLDMMSTLRKDNAGYDMKHLFIGSEGTLGVVTRVSLKLYPFPRSTQLALFRLTTFESVLELYRLAQEHLSECLSAFEVVDGESLSVTPQEELPFTRTSKSDTFRAGQDFTSAYFCVMVETNGSNAEHDMEKLSRFVEAAECNPRCVSKGDLGESFEPVLSQSLAQTAQLWNLREDTPVRLASAGTIYIFDVSFPLDKFYDIVLHFRKMIYKNGGFDPDEVLVVGYGHFGDGNIHLNVVDRTRKHSDALDAVLFPAVYEFCAAHSGSISAEHGVGVQKKAYLGFSRKPEVIALMRTLKRTMDPNGILNPYKVID | soluble
MAHHHHHHMTSFKDCLREVREAATEHLEGYRGGDTEKALQHIPREEALTTISLVAIRLLEQELPKRGAGNDASQHELHAQLRACRKALKSHSARSAAGDEGTSDKKRRRTEESTEAPTSSSYRGSATADRSGTSNSIELGQYASSDAFDQNEQKRMKFARLMGGAKVAAQGTGGAGGHSRHNTFAASNAELKRMNANLESQFESAMSHKGKKGLGA | soluble
